This test has as its target GST-Kar2p (S. cerevisiae) (UniProt P16474). The test can be described thus: pull-down.

B1: His-Sil1p (natural protein)
chain: TILHSSIHSVPSGGEIISAEDLKELEISGNSICVDNRCYPKIFEPRHDWQPILPGQELPGGLDIRINMDTGLKEAKLNDEKNVGDNGSHELIVSSEDMKASPGDYEFSSDFKEMRNIIDSNPTLSSQDIARLEDSFDRIMEFAHDYKHGYKIITHEFALLANLSLNENLPLTLRELSTRVITSCLRNNPPVVEFINESFPNFKSKIMAALSNLNDSNHRSSNILIKRYLSILNELPVTSEDLPIYSTVVLQNVYERNNKDKQLQIKVLELISKILKADMYENDDTNLILFKRNAENWSSNLQEWANEFQEMVQNKSIDELHTRTFFDTLYNLKKIFKSDITINKGFLNWLAQQCKARQSNLDNGLQERDTEQDSFDKKLIDSRHLIFG
As to B1, the reduction of binding in the presence of ATP was 50%.

The values are drawn from publication PMC2898433.
